Experimental data taken from PMC2903388.

How the values were obtained:
[1] = target: Mouse tail tendon type I collagen heterotrimer α1(I)2α2(I) (mouse) (UniProt P11087); assay: equilibrium microdialysis
[2] = target: Mouse tail tendon type I collagen homotrimer α1(I)3 (mouse) (UniProt P11087); assay: equilibrium microdialysis
Chain of Mouse tail tendon type I collagen homotrimer α1(I)3 (mouse) (P11087 152-1207): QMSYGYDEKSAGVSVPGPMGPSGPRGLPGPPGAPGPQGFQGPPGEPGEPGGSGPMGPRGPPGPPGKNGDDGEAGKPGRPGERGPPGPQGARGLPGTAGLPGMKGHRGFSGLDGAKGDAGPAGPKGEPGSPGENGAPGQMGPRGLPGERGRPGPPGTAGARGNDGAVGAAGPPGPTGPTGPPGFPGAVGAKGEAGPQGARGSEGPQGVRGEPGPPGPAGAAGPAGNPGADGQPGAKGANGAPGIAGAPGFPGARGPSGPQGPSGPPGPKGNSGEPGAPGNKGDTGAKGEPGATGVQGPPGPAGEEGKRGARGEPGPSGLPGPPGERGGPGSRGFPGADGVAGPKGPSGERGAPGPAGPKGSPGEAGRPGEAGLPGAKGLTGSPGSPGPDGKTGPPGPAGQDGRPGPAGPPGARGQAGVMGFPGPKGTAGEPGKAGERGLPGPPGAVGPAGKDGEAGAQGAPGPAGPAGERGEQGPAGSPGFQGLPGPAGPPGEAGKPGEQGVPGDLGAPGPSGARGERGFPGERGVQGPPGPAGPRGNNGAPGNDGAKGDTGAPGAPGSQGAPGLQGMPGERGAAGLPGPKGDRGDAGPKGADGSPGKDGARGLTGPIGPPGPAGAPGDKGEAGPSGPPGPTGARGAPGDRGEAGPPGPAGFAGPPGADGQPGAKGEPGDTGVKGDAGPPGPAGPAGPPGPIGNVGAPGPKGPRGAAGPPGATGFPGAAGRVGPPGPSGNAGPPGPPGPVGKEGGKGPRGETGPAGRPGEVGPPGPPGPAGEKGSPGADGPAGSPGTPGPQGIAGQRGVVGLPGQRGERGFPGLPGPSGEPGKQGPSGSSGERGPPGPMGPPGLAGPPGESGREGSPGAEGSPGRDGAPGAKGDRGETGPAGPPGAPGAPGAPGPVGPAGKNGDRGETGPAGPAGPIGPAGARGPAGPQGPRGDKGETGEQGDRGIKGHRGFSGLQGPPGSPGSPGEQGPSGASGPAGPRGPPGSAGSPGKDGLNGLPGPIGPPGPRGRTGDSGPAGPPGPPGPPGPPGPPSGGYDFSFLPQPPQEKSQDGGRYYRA

Chain of Mouse tail tendon type I collagen heterotrimer α1(I)2α2(I) (mouse) (P11087 152-1207, chain 1 of 2): as the sequence (P11087 152-1207) above
Chain of Mouse tail tendon type I collagen heterotrimer α1(I)2α2(I) (mouse) (Q01149 86-1125, chain 2 of 2, further chain): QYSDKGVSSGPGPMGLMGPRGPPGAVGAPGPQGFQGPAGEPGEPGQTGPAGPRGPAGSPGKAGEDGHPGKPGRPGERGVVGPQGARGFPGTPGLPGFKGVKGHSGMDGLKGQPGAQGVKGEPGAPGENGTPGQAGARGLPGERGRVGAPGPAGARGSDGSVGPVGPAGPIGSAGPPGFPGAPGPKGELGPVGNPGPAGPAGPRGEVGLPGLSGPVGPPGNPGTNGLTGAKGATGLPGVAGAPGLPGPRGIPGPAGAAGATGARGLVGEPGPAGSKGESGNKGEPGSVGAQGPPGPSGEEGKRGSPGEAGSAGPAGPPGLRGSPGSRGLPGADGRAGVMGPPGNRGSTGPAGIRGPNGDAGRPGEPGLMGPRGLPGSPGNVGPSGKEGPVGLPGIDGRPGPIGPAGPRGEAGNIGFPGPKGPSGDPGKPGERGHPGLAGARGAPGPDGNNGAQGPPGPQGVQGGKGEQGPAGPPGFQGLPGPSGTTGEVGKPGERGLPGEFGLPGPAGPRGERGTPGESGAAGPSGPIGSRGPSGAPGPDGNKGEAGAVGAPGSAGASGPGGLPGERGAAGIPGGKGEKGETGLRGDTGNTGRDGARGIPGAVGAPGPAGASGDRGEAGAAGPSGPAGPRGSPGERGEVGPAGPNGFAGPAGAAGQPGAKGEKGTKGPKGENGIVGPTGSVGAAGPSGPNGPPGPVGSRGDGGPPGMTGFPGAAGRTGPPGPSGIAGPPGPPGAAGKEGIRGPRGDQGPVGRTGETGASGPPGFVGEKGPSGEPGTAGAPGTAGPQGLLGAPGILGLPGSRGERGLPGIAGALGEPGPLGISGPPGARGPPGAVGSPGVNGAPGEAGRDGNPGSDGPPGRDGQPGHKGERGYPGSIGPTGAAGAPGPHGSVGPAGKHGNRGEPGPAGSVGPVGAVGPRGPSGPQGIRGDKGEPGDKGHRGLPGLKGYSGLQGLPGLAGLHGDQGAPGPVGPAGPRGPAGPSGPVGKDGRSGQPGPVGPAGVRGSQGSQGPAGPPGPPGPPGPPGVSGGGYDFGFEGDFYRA

KD, high-affinity site [1]: 1300 nM
KD, low-affinity sites [1]: > 50000 nM
N, high-affinity site (MMP-1(E200A) per collagen triple helix) [1]: 1
KD, high-affinity site [2]: 1300 nM
KD, low-affinity sites [2]: > 50000 nM
N, high-affinity site (MMP-1(E200A) per collagen triple helix) [2]: 1
Substance: MMP-1(E200A), activated recombinant human fibroblast collagenase with Glu-200 substituted with Ala (enzyme)
